The values below come from article PMC5576923.

Test [1] has as its target β-Arrestin1 (human (endogenous in Caco-2 and HCT116)) (UniProt P49407). The test can be described thus: proximity ligation; Duolink II red kit on fixed, permeabilised cells; PTEN-/- HCT116 cells transfected 24 hr with GFP-tagged EV or PTEN constructs, HCT116 cells as positive control; signal as AI units, n = 35 cells per condition in triplicate.
Test [2] has the same target. The test can be described thus: co-IP; competition in cells: Caco-2 or HCT116 cells treated with 10 μM pep24 or 10 μM scrambled control peptide for 24 hr, then β-Arrestin1 immunoprecipitated and ARHGAP21 blotted.

Sequence of β-Arrestin1 (human (endogenous in Caco-2 and HCT116)) (P49407 whole entry): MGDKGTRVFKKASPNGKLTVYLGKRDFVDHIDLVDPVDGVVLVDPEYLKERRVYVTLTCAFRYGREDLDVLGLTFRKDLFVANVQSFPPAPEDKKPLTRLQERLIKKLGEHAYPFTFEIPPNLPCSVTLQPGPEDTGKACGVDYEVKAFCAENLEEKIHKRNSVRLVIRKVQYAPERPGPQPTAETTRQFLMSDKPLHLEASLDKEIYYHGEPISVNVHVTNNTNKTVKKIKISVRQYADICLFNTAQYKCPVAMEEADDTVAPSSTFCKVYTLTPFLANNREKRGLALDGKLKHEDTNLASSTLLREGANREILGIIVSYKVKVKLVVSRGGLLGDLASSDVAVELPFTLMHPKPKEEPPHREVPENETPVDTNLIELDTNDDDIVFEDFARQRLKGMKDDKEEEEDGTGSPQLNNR
Sequence of cell permeant β-Arrestin1-ARHGAP21 binding disruptor peptide pep24 (Q5T5U3 1331-1355): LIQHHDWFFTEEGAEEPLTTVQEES

“GFP-labeled isolated PTEN C2 domain (domain or fragment)” had a PLA interaction AI in test [1] of 38.3 AI units. In the case of “cell permeant β-Arrestin1-ARHGAP21 binding disruptor peptide pep24 (from UniProt Q5T5U3 1331-1355)”, in test [2], the fold change of β-Arrestin1-associated ARHGAP21 (ADU), pep24 vs control peptide, Caco-2 cells is 0.63 fold change and the fold change of β-Arrestin1-associated ARHGAP21 (ADU), pep24 vs control peptide, HCT116 cells amounted to 0.39 fold change.
